The results in this text go back to PMC12754628.

The target of the data set is T1, CcpA (Staphylococcus aureus USA300) (UniProt P99175).
T1 sequence: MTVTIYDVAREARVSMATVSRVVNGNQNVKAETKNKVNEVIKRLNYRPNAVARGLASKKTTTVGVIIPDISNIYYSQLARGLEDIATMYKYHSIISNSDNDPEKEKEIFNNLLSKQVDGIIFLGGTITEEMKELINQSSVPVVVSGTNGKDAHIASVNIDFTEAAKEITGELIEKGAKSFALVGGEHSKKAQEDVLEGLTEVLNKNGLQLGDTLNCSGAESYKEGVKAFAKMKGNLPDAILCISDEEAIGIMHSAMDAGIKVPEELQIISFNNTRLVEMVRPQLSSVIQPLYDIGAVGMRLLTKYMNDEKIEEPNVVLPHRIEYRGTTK
In words: competition. To be noted: 10 mM Tris-HCl pH 8.0, 5 mM MgCl2, 1 mM DTT, 50 mM KCl, 0.05% Nonidet P-40, 2.5% glycerol, 25 C, 30 min; 6% native PAGE in 0.5x TBE.

For the sequence “ATGCTTTACCAGCTTTGAATGCTGGAACTTTACTTGCTGGGATATCAATTTCTTTACCAGTTTGAGGGTTACGACCTTTACGTGCAGCACGTTCACGTACCTCAAAGTTACCGAAACCAATTAATTGTACTTTTTCACCTTTAGCAAGTGAGTTTTGGATTGATTCGAATACAGCATCTACTGCTGAACCAGCTTCTTTTT (double strand) [hu]”, the binding entry is “no binding”.
